Patent US20200308267A1 (Boehringer Ingelheim, published 2020)
Where two headings read alike, the source gives them in different places.

T1: recombinant mouse VEGF164 (mouse, UniProt Q00731-2 27-190, biotinylated in the AlphaScreen)
T1 construct: also called mVEGF164; rmVEGF164
T1 sequence (looked up): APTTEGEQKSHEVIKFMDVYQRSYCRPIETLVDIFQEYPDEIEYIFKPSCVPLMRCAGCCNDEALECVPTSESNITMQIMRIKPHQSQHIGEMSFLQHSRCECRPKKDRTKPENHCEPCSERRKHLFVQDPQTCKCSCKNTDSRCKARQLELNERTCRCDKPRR


Assays:
[1] = target: VEGF; assay: cell-based or functional assay
[2] = target: VEGF; assay: cell-based or functional assay; remark: listed apart in the source
[3] = target: T2, recombinant human VEGF165 (human, UniProt P15692-4 27-191, biotinylated (Sulfo-NHS-LC-Biotin) in the competition assays); assay: SPR Biacore T100, VEGF165 chip, Two State Reaction fit
T2 construct: also called hVEGF165; rhVEGF165
Description: Samples are injected for 2 min and allowed to dissociate up to 20 min at a flow rate of […]. In between sample injections, the chip surface is regenerated with 100 mM HCl. HBS-EP+(Hepes buffer pH7.4+EDTA) is used as running buffer. Binding curves are fitted using a Two State Reaction model by Biacore T100 Evaluation Software v2.0.1.
^{(a)}Heterogeneous binding curve resulting in no 1:1 fit, curves are fitted using a Two State Reaction model by Biacore T100 Evaluation Software v2.0.1

[4] = target: VEGF; assay: cell-based or functional assay; remark: listed apart in the source
[5] = target: T2, recombinant human VEGF165; assay: Biacore, periplasmic extract, VEGF165 chip, two phase decay fit; design: unit not given here
Description: Dissociation rates of inhibitory VHHs are analyzed on Biacore (Biacore T100 instrument, GE Healthcare). HBS-EP+ buffer is used as running buffer and experiments are performed at 25° C. […] After immobilization, surfaces are deactivated with 10 min injection of 1 M ethanolamine pH8.5. A reference surface is activated and deactivated with respectively EDC/NHS and ethanolamine. Periplasmic extracts of VHHs are injected at a 10-fold dilution in running buffer for 2 min at 45 μl/min and allowed to dissociate for 10 or 15 min. Between different samples, the surfaces are regenerated with regeneration buffer. Data are double referenced by subtraction of the curves on the reference channel and of a blank running buffer injection. […] is evaluated by fitting a two phase decay model in the Biacore T100 Evaluation software v2.0.1.

[6] = target: VEGF; assay: cell-based or functional assay; remark: listed apart in the source
[7] = target: VEGF; assay: cell-based or functional assay; remark: listed apart in the source
[8] = target: T1, recombinant mouse VEGF164; assay: binding ELISA, coated rmVEGF164
Description: Cross-reactivity to mouse VEGF164 is determined using a binding ELISA. […] Wells are blocked with a casein solution (1% in PBS). […] A mouse VEGF164 reactive mAb is included as positive control.

Chain of VEGF (P15692 whole entry): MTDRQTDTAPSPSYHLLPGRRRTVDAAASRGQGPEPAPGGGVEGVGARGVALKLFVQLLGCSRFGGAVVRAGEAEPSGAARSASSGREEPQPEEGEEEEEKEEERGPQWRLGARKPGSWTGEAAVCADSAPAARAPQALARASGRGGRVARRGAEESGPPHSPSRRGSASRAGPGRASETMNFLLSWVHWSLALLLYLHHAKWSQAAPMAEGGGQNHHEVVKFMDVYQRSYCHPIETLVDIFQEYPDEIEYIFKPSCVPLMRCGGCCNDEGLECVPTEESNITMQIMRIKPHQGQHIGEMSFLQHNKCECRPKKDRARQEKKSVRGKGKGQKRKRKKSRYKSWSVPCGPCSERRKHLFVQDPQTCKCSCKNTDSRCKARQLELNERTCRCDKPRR

HUVEC proliferation, % inhibition [1] [%]	HUVEC proliferation, IC50 [1] [nM]	HUVEC proliferation, % inhibition [2] [%]	HUVEC proliferation, IC50 [2] [nM]	ka1 [3] [M⁻¹ s⁻¹]	kd1 [3] [s⁻¹]	kd(fast) [5]	kd(slow) [5]	HUVEC proliferation, % inhibition [6] [%]	HUVEC proliferation, IC50 [6] [nM]	HUVEC Erk phosphorylation, % inhibition [7] [%]	HUVEC Erk phosphorylation, IC50 [7] [nM]	Binder	other results
		92	0.6									VEGFBII038 (VHH) VHH: DVQLVESGGGLVQPGGSLRLSCAASGRTFSSYSMGWFRQAPGKEREFVVAISKGGYKYDAVSLEGRFTISRDNAKNTVYLQINSLRPEDTAVYYCASSRAYGSSRLRLADTYEYWGQGTLVTVSS	
								100	0.34	94	0.18	VEGFBII022 (VHH, not shown: small tags and cut ends) EVQLVESGGGLVQTGDSLRLSCEVSGRTFSSYSMGWFRQAQGKEREFVVAISKGGYKYDSVSLEGRFTISKDNAKNTVYLQINSLKPEDTAVYYCASSRAYGSSRLRLADTYEYWGQGTQVTVSSGGGGSGGGSEVQLVESGGGLVQPGGSLRLSCVASGIRFMSMAWYRQAPGKHRELVARISSGGTTAYVDSVKGRFTISRDNSKNTVYLQMNSLKAEDTAVYYCNTFSSRPNPWGAGTQVTVSS	
								104	0.41	99	0.23	VEGFBII025 (VHH, not shown: small tags and cut ends) EVQLVESGGGLVQAGGSLRLSCAASGRTFSNYAMGWFRQAPGKERVLVADISSSGINTYVADAVKGRFTISRDNAKNTVYLQMNSLKPEDTAVYYCAASAWWYSQMARDNYRYWGQGTQVTVSSGGGGSGGGGSGGGGSGGGGSGGGGSGGGGSGGGGSGGGGSEVQLVESGGGLVQTGDSLRLSCEVSGRTFSSYSMGWFRQAQGKEREFVVAISKGGYKYDSVSLEGRFTISKDNAKNTVYLQINSLKPEDTAVYYCASSRAYGSSRLRLADTYEYWGQGTQVTVSS	

More lines, now with the values behind:

Binder	HUVEC proliferation, % inhibition [1] [%]	HUVEC proliferation, IC50 [1] [nM]	HUVEC proliferation, % inhibition [2] [%]	HUVEC proliferation, IC50 [2] [nM]	ka1 [3] [M⁻¹ s⁻¹]	kd1 [3] [s⁻¹]	kd(fast) [5]	kd(slow) [5]	HUVEC proliferation, % inhibition [6] [%]	HUVEC proliferation, IC50 [6] [nM]	HUVEC Erk phosphorylation, % inhibition [7] [%]	HUVEC Erk phosphorylation, IC50 [7] [nM]	other results
VEGFBII23B04 (VHH, not shown: small tags and cut ends, also purified from E. coli TG1; also called VEGFBII23B4; VEGFBII23B04 (wt)) VHH: EVQLVESGGGLVQTGDSLRLSCEVSGRTFSSYSMGWFRQAQGKEREFVVAISKGGYKYDSVSLEGRFTISKDNAKNTVYLQINSLKPEDTAVYYCASSRAYGSSRLRLADTYEYWGQGTQVTVSS	91	0.36	92	0.68	210000	0.0086	0.0088	4e-05					HUVEC Erk phosphorylation, IC50 [4]: 0.37 nM
VEGFBII037 (VHH) VHH: DVQLVESGGGLVQPGGSLRLSCAASGRTFSSYSMGWFRQAPGKEREFVVAISKGGYKYDAVSLEGRFTISRDNAKNTVYLQMNSLRPEDTAVYYCASSRAYGSSRLRLADTYEYWGQGTLVTVSS			78	1.54									
VEGFBII23A06 (VHH, not shown: small tags and cut ends, also purified from E. coli TG1; also called VEGFBII23A6; 23A6) VHH: EVQLVESGGGLVQPGDSLKLSCAFSGRTFSSYSMGWFRQAQGKEREFVVAISSGGFIYDAVSLEGRFTISRDNTKNTVYLQTPSLKPEDTAVYYCAASRAYGSSRLRLADTYDYWGQGTQVTVSS	73	4.29			420000	0.057	0.017	3.7e-05					
VEGFBII24C04 (VHH, not shown: small tags and cut ends, also purified from E. coli TG1; also called VEGFBII24C4) VHH: EVQLVESGGGLVQPGDSLKLSCVASGRTSSSYSMGWFRQAQGKEREFVVAISSGGYIYDSVSLQGRFTISRDNTKNTVYLQTPSLKPEDTAVYYCAASRAYGSSRLRLADTYDYWGQGTQVTVSS	79	3.8			320000	0.026	0.013	3.4e-05					binding result [8]: no binding (tested: 500 nM)
VEGFBII023 (VHH, not shown: small tags and cut ends) EVQLVESGGGLVQTGDSLRLSCEVSGRTFSSYSMGWFRQAQGKEREFVVAISKGGYKYDSVSLEGRFTISKDNAKNTVYLQINSLKPEDTAVYYCASSRAYGSSRLRLADTYEYWGQGTQVTVSSGGGGSGGGGSGGGGSGGGGSGGGGSGGGGSGGGGSGGGGSEVQLVESGGGLVQAGGSLRLSCAASGRTFSNYAMGWFRQAPGKERVLVADISSSGINTYVADAVKGRFTISRDNAKNTVYLQMNSLKPEDTAVYYCAASAWWYSQMARDNYRYWGQGTQVTVSS									98	0.52	100	0.25	
VEGFBII024 (VHH, not shown: small tags and cut ends) EVQLVESGGGLVQTGDSLRLSCEVSGRTFSSYSMGWFRQAQGKEREFVVAISKGGYKYDSVSLEGRFTISKDNAKNTVYLQINSLKPEDTAVYYCASSRAYGSSRLRLADTYEYWGQGTQVTVSSGGGGSGGGGSGGGGSGGGGSGGGGSGGGGSGGGGSGGGGSEVQLVESGGGLVQAGGSLRLSCTASGSAFKSYRMGWFRRTPGKEDEFVASISWTYGSTFYADSVKGRFTMSRDKAKNAGYLQMNSLKPEDTALYYCAAGAQSDRYNIRSYDYWGQGTQVTVSS									96	0.38	94	0.23	
